Experiment [1] concerns the target human CD16A-158F ECD fused to Avi-tagged and biotinylated monomeric Fc (silenced) (human) (UniProt P08637). Nature of the experiment: SPR.
The target in experiment [2] is human CD16A-158V ECD fused to Avi-tagged and biotinylated monomeric Fc (silenced) (human). Nature of the experiment: SPR.

UniProt P08637, sequence (P08637 17-208): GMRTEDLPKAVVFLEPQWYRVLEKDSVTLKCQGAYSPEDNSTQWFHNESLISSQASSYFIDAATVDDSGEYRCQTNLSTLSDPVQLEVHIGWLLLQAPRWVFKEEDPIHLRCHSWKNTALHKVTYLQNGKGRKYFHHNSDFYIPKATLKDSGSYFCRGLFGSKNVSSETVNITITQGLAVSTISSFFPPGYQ

In general, Kd refers to the constant that tells how readily two partners part at equilibrium. Low readings indicate a tighter complex, high ones a looser complex. The koff is the rate constant with which the complex falls apart. In general, kon refers to a measure of how fast the partners come together. The low end stands for slower complex formation, the high end for faster complex formation. In the case of “human IgG1 with silenced Fc (L234F/L235E/D265A) (antibody)”, in experiment [1], the dissociation constant Kd was found to be 34700 nM, the off-rate constant (koff) stood at 0.71 s⁻¹ and the kon came to 20400 M⁻¹ s⁻¹.

Turning to human IgG1 with wildtype Fc (antibody), in experiment [2], the Kd was 424 nM, the dissociation rate constant (koff) was found to be 0.00995 s⁻¹ and the kon came out at 23500 M⁻¹ s⁻¹. Also, in experiment [1], the Kd was determined as 2720 nM, the off-rate (koff) is 0.0675 s⁻¹ and the kon is 24800 M⁻¹ s⁻¹.

With “human IgG1 with enhanced Fc (S239D/I332E) (antibody)”, in experiment [2], the Kd was found to be 13.5 nM, the koff worked out at 0.00639 s⁻¹ and the kon was determined as 474000 M⁻¹ s⁻¹.

(Values after paper PMC6601565.)
